Test [1] concerns the target tau 48-71 (human). Nature of the test: peptide ELISA, biotinylated peptide on streptavidin plate, IgG titrated (Example 14). To be noted: remark: other sources report otherwise.
In test [2] the target is recombinant tau (human), P10636. The test is described as follows: ELISA, recombinant tau coated on the plate, IgG titrated (Example 7). To be noted: remark: other sources report otherwise. In general terms: ELISA stands for enzyme-linked immunosorbent assay.
Chain of recombinant tau (human), P10636 (P10636 other isoform, or with tags, fused parts or gaps limits assumed): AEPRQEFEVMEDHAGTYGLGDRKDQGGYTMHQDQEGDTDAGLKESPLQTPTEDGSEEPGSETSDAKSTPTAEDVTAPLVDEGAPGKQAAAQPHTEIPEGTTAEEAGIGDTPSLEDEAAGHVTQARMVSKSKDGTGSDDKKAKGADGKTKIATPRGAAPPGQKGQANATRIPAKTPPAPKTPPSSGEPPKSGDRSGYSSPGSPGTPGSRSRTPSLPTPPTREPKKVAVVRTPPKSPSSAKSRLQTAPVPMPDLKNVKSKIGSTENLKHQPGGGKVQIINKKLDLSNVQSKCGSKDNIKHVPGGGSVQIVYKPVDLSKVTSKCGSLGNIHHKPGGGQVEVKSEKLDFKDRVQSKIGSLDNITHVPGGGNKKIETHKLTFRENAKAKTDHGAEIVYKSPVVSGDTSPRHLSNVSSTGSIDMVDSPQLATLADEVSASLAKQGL

Chain of tau 48-71 (human) (peptide, as listed by the source limits assumed, form in doubt): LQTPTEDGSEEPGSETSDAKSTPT

B1: CBTAU-28.1 (antibody, human IgG1, V domains shown)
VH: QVQLQQSGAEVKKPGESLKISCEASGYSFTNYWIGWVRQMPGKGLEWMGIIYPGDSDTRYSPPFQGQVTITADRSITTAYLEWSSLKASDTAMYYCARVGRPSKGGWFDPWGQGTLVTVSS
VL: DIQMTQSPDSLAVSLGERATINCESSQTLLYSSNEKNYLAWYQQKPGQPPKLLISWASTPESGVPDRFSGSGSGTSFTLTISSLQAEDVAVYYCQQYYNSPYTFGQGTRLEIK
modifications: here or on the partner: N-terminal biotin not carried in the letters; no phosphorylation
Broadly, the EC50 (read off the curve) is the concentration needed to bring the measured effect to its halfway point. For B1, the EC50 (read off the curve) was determined as 0.06 µg/mL in test [1] and 0.008 µg/mL in test [2].

For the origin of these results see US20170152307A1.
